Data published in patent publication US20160143998A1 (Novo Nordisk, published 2016).
*1 amine or outer side, *2 acyl side, *3 side chain or, on linkers, in order; H or OH if unused. Where no end group is shown, it is not given here. Side-chain parts run from the residue outwards. [ ]: non-standard residue; d: D form. The star is where a group is joined. code 2xAEEA = O=C(COCCOCCN[*:1])NCCOCCOCC(=O)[*:2]; C20 diacid = O=C(O)CCCCCCCCCCCCCCCCCCC(=O)*; γGlu = O=C(O)[C@H](CCC(=O)[*:2])N[*:1]; Desaminohistidyl = O=C(CCc1c[nH]cn1)*; Trx = NC[C@H]1CC[C@H](C(=O)O)CC1; code LysOEG = not defined here; Lys(Bis) = not defined here; AEEA = NCCOCCOCC(=O)O; Aib = CC(C)(N)C(=O)O

Assays:
[1] = target: T1, human GLP-1 receptor (human, UniProt P43220 24-463); test: SPA competition vs 125I-GLP-1(7-36)NH2, hGLP-1R BHK membranes, high HSA (2.0%)
T1 construct: whole, on cells
Protocol: (§1) For the receptor binding assay in the presence of low HSA (0.005%) 50 μl of the assay buffer was added to each well of an assay plate. […] For the receptor binding assay in the presence of high HSA (2%) 50 μl of the 8% albumin stock was added to each well of an assay plate. […] Cell membrane aliquots were thawed and diluted to their working concentration. Fifty μl were added to each well in the assay plate. […] WGA SPA beads were suspended in assay buffer at 20 mg/ml. The suspension was diluted to 10 mg/ml in assay buffer just prior to addition to the assay plate. Fifty μl were added to each well in the assay plate. […] A 25 μl aliquot was reserved for measuring total counts/well. […] The assay plate was incubated for 2 h at 30° C. […] The assay plate was centrifuged for 10 min. […] The assay plate was read in a Packard TopCount NXT instrument.

[2] = target: T1, human GLP-1 receptor; test: SPA competition vs 125I-GLP-1(7-36)NH2, hGLP-1R BHK membranes, low HSA
Protocol: as §1

[3] = target: T1, human GLP-1 receptor; test: cell-based or functional assay

Binder | IC50 [1] [nM] | IC50 [2] [nM] | EC50 (pM), in vitro potency, CRE luciferase reporter gene assay in BHK cells expressing the human GLP-1 receptor [3] [pM]
H[Aib]EGTFTSDVSSYLEEQAAREFIAWLVRGRGGGSK([code LysOEG-AEEA-γGlu-Trx-C20 diacid)(OEG-AEEA-γGlu-Trx-C20 diacid]) (reading uncertain; also: printed as [Aib8,Glu22,Arg26,Arg34]-GLP-1-(7-37)-peptidyl-Gly-Gly-Ser-N{Epsilon}[(2S)-2,6-bis[[2-[2-[2-[[2-[2-[2-[[(4S)-4-carboxy-4-[[4-[(19-carboxynonadecanoylamino)methyl]cyclohexanecarbonyl]amino]butanoyl]amino]ethoxy]ethoxy]acetyl]amino]ethoxy]ethoxy]acetyl]amino]hexanoyl]Lys, Side chain read from the name: eps-Lys(Bis) branched linker, each leg C20 diacid-Trx-gGlu-2xOEG) | 59 | 1.93 | 87
H[Aib]EGTFTSDVSSYLEEQAAREFIAWLVRGRGGGGSK([code LysOEG-AEEA-γGlu-Trx-C20 diacid)(OEG-AEEA-γGlu-Trx-C20 diacid]) (reading uncertain, Side chain read from the name: eps-Lys(Bis) branched linker, each leg C20 diacid-Trx-gGlu-2xOEG) | 175 | 1.64 | 94
H[Aib]EGTFTSDVSSYLEEQAAREFIAWLVRGRGAEAPK([code LysOEG-AEEA-γGlu-Trx-C20 diacid)(OEG-AEEA-γGlu-Trx-C20 diacid]) (reading uncertain, Side chain read from the name: eps-Lys(Bis) branched linker, each leg C20 diacid-Trx-gGlu-2xOEG) | 27 | 1.7 | 13
H[Aib]EGTFTSDVSSYLEEQAAREFIAWLVRGRGK (not fully specified (residue 32); printed as N{Alpha}([Aib8,Glu22,Arg26,Arg34]-GLP-1-(7-37)-peptidyl)-N{Epsilon}[(2S)-2,6-bis[[2-[2-[2-[[2-[2-[2-[[(4S)-4-carboxy-4-[[1-(19-carboxynonadecanoyl)piperidine-4-carbonyl]amino]butanoyl]amino]ethoxy]ethoxy]acetyl]amino]ethoxy]ethoxy]acetyl]amino]hexanoyl]Lys, Side chain read from the name: eps-Lys(Bis) branched linker, each leg C20 diacid-Inp-gGlu-2xOEG) | 68 | 0.76 | 55
H[Aib]EGTFTSDVSSYLEEQAAREFIAWLVRGRGEPPGK([code LysOEG-AEEA-γGlu-Trx-C20 diacid)(OEG-AEEA-γGlu-Trx-C20 diacid]) (reading uncertain, Side chain read from the name: eps-Lys(Bis) branched linker, each leg C20 diacid-Trx-gGlu-2xOEG) | 50 | 2.9 | 15
H[Aib]EGTFTSDVSSYLEEQAAREFIAWLVRGRGK([code LysOEG-AEEA-γGlu-Trx-C20 diacid)(OEG-AEEA-γGlu-Trx-C20 diacid]) (reading uncertain; also: printed as N{Alpha}([Aib8,Glu22,Arg26,Arg34]-GLP-1-(7-37)-peptidyl)-N{Epsilon}[(2S)-2,6-bis[[2-[2-[2-[[2-[2-[2-[[(4S)-4-carboxy-4-[[4-[(19-carboxynonadecanoylamino)methyl]cyclohexanecarbonyl]amino]butanoyl]amino]ethoxy]ethoxy]acetyl]amino]ethoxy]ethoxy]acetyl]amino]hexanoyl]Lys, Side chain read from the name: eps-Lys(Bis) branched linker, each leg C20 diacid-Trx-gGlu-2xOEG) | 78 | 0.9 | 70
H[Aib]EGTFTSDVSSYLEEQAAREFIAWLVRGRPK([code LysOEG-AEEA-AEEA-AEEA-AEEA-AEEA-γGlu-Trx-C20 diacid)(OEG-AEEA-AEEA-AEEA-AEEA-AEEA-γGlu-Trx-C20 diacid]) (reading uncertain, Side chain read from the name: eps-Lys(Bis) branched linker, each leg C20 diacid-Trx-gGlu-6xOEG) | 84 | 0.57 | 12
[Desaminohistidyl][Aib]EGTFTSDVSSYLEEQAAREFIAWLVRGRGGK([Lys(Bis)-code 2xAEEA-AEEA-AEEA-AEEA-γGlu-Trx-C20 diacid]) (reading uncertain; also: printed as [Imp7,Aib8,Glu22,Arg26,Arg34]-GLP-1-(7-37)-peptidyl-Gly-N{Epsilon}[(2S)-2,6-bis[[2-[2-[2-[[2-[2-[2-[[2-[2-[2-[[2-[2-[2-[[(4S)-4-carboxy-4-[[4-[(19-carboxynonadecanoylamino)methyl]cyclohexanecarbonyl]amino]butanoyl]amino]ethoxy]ethoxy]acetyl]amino]ethoxy]ethoxy]acetyl]amino]ethoxy]ethoxy]acetyl]amino]ethoxy]ethoxy]acetyl]amino]hexanoyl]Lys, Side chain read from the name: eps-Lys(Bis) branched linker, each leg C20 diacid-Trx-gGlu-4xOEG) | 54 | 0.91 | 16
H[Aib]EGTFTSDVSSYLEEQAAREFIAWLVRGRGGSK([code LysOEG-AEEA-γGlu-Trx-C20 diacid)(OEG-AEEA-γGlu-Trx-C20 diacid]) (reading uncertain; also: printed as [Aib8,Glu22,Arg26,Arg34]-GLP-1-(7-37)-peptidyl-Gly-Ser-N{Epsilon}[(2S)-2,6-bis[[2-[2-[2-[[2-[2-[2-[[(4S)-4-carboxy-4-[[4-[(19-carboxynonadecanoylamino)methyl]cyclohexanecarbonyl]amino]butanoyl]amino]ethoxy]ethoxy]acetyl]amino]ethoxy]ethoxy]acetyl]amino]hexanoyl]Lys, Side chain read from the name: eps-Lys(Bis) branched linker, each leg C20 diacid-Trx-gGlu-2xOEG) | 25 | 0.74 | 51
H[Aib]EGTFTSDVSSYLEEQAAREFIAWLVRGRGPAEEK([Lys(Bis)-code 2xAEEA-AEEA-γGlu-Trx-C20 diacid]) (reading uncertain, Side chain read from the name: eps-Lys(Bis) branched linker, each leg C20 diacid-Trx-gGlu-2xOEG) | 68 | 2.9 | 14
H[Aib]EGTFTSDVSSYLEEQAAREFIAWLVRGRGK([code LysOEG-AEEA-γGlu-C20 diacid)(OEG-AEEA-γGlu-C20 diacid]) (reading uncertain; also: printed as N{Alpha}([Aib8,Glu22,Arg26,Arg34]-GLP-1-(7-37)-peptidyl)-N{Epsilon}[(2S)-2,6-bis[[2-[2-[2-[[2-[2-[2-[[(4S)-4-carboxy-4-(19-carboxynonadecanoylamino)butanoyl]amino]ethoxy]ethoxy]acetyl]amino]ethoxy]ethoxy]acetyl]amino]hexanoyl]Lys, Side chain read from the name: eps-Lys(Bis) branched linker, each leg C20 diacid-gGlu-2xOEG) | 64 | 0.45 | 25
H[Aib]EGTFTSDVSSYLEEQAAREFIAWLVRGRGSSGAPK([Lys(Bis)-code 2xAEEA-AEEA-γGlu-Trx-C20 diacid]) (reading uncertain, Side chain read from the name: eps-Lys(Bis) branched linker, each leg C20 diacid-Trx-gGlu-2xOEG) | 28 | 0.99 | 99
H[Aib]EGTFTSDVSSYLEEQAAREFIAWLVRGRGSSEAEK([Lys(Bis)-code 2xAEEA-AEEA-γGlu-Trx-C20 diacid]) (reading uncertain, Side chain read from the name: eps-Lys(Bis) branched linker, each leg C20 diacid-Trx-gGlu-2xOEG) | 85 | 3.1 | 19
H[Aib]EGTFTSDVSSYLEEQAAREFIAWLVRGRGSSAEGK([Lys(Bis)-code 2xAEEA-AEEA-γGlu-Trx-C20 diacid]) (reading uncertain, Side chain read from the name: eps-Lys(Bis) branched linker, each leg C20 diacid-Trx-gGlu-2xOEG) | 63 | 3.2 | 12
H[Aib]EGTFTSDVSSYLEEQAAREFIAWLVRGRGSSPAAK([Lys(Bis)-code 2xAEEA-AEEA-γGlu-Trx-C20 diacid]) (reading uncertain, Side chain read from the name: eps-Lys(Bis) branched linker, each leg C20 diacid-Trx-gGlu-2xOEG) | 51 | 4.8 | 22
H[Aib]EGTFTSDVSSYLEEQAAREFIAWLVRGRGSK([Lys(Bis)-code 2xAEEA-AEEA-γGlu-Trx-C20 diacid]) (reading uncertain; also: printed as [Aib8,Glu22,Arg26,Arg34]-GLP-1-(7-37)-peptidyl-Ser-N{Epsilon}[(2S)-2,6-bis[[2-[2-[2[[2-[2-[2-[[(4S)-4-carboxy-4-[[4-[(19-carboxynonadecanoylamino)methyl]cyclohexanecarbonyl]amino]butanoyl]amino]ethoxy]ethoxy]acetyl]amino]ethoxy]ethoxy]acetyl]amino]hexanoyl]Lys, Side chain read from the name: eps-Lys(Bis) branched linker, each leg C20 diacid-Trx-gGlu-2xOEG) | 83 | 0.61 | 44
